Positions count from the first letter of the chain named. Numbers in names are those of the source.
B1: scFvWFL, single chain variant (scFv) of MEDI1912 (scFv, V domains shown)
VH: QVQLVQSGAEVKKPGSSVKVSCKASGGTFWFGAFTWVRQAPGQGLEWMGGIIPIFGLTNLAQNFQGRVTITADESTSTVYMELSSLRSEDTAVYYCARSSRIYDLNPSLTAYYDMDVWGQGTMVTVSS
VL: QSVLTQPPSVSAAPGQKVTISCSGSSSDIGNNYVSWYQQLPGTAPKLLIYDNNKRPSGIPDRFSGSKSGTSATLGITGLQTGDEADYYCGTWDSSLSAWVFGGGTKLTVL
B2: scFvSTT, scFv of MEDI1912 with W35S, F36T and L64T in VH (scFv, V domains shown)
VH: B1 VH with W30S, F31T, L57T
VL: B1 VL

What was measured:
[1] = molecular target: scFvWFL, single chain variant (scFv) of MEDI1912 (human); assay: cross-linking; scFv 15 µM in 100 mM sodium phosphate pH 7.4, d0/d4-BS3 (50:50) at 50x, 100x, 200x and 500x molar excess, 30 min at 25 °C; SDS-PAGE densitometry and LC-MS/MS of the dimer bands
[2] = molecular target: scFvSTT, scFv of MEDI1912 with W35S, F36T and L64T in VH (human); assay: as above

Binder | percent incorporated into higher-order oligomers [1] [%] | percent remaining monomeric [2] [%]
B1 | 45 | –
B2 | – | 99

From publication PMC7156504
